Measured values as given in patent US20200199241A1 (Chugai, published 2020).
Where a chain is given by its changes, count along the chain named. In names and notes the source's numbering stands.

T1: human FcγRIIa(R) (human, UniProt P12318 36-217)
T1 construct: also called FcgRIIaR; hFcgRIIa(R)
T1 chain: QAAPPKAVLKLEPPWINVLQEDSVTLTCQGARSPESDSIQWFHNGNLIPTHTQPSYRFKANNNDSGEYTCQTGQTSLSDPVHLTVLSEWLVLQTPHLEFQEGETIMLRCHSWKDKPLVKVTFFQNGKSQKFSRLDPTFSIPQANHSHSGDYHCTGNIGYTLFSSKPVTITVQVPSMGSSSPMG

T2: human FcγRIIa(H) (human, UniProt P12318 36-217)
T2 construct: also called FcgRIIaH; hFcgRIIa(H)
T2 sequence: T1 chain with R133H

T3: human FcγRIIb (human, UniProt P31994 43-217, limits assumed)
T3 construct: also called FcgRIIb; hFcgRIIb
T3 sequence: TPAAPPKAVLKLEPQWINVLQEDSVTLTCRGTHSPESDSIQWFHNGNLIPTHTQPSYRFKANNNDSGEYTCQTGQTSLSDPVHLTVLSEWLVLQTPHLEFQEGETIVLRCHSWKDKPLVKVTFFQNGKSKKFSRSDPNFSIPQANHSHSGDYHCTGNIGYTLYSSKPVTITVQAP

B1: GpH7-B3 P271W/GpL16-k0 (antibody, human IgG1)
heavy: not shown
light: DIVMTQSPLSLPVTPGEPASISCQASESLVHSNRNTYLHWYLQKPGQSPQLLIYKVSNRFSGVPDRFSGSGSGTDFTLKISRVEAEDVGVYYCSQNTHVPPTFGQGTKVEIE
notes: B3 variant; copies: 2 + 2
B2: GpH7-B3 P331R/GpL16-k0 (antibody, human IgG1)
heavy: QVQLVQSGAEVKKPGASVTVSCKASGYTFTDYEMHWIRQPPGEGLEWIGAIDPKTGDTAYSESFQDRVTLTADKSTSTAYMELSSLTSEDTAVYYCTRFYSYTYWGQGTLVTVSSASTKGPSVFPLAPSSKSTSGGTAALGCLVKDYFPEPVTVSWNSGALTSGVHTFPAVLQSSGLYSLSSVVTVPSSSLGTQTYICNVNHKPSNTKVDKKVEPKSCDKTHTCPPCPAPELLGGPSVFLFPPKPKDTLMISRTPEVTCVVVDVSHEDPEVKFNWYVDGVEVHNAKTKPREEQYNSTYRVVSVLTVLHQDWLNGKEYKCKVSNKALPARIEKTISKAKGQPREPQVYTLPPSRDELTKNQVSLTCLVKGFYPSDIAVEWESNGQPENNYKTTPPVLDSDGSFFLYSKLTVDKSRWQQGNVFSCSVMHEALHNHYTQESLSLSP
light: B1 light
notes: B3 variant; copies: 2 + 2
B3: GpH7-B3 P329V/GpL16-k0 (antibody, human IgG1)
heavy: not shown
light: B1 light
notes: B3 variant; copies: 2 + 2
B4: GpH7-B3 P329E/GpL16-k0 (antibody, human IgG1)
heavy: not shown
light: B1 light
notes: B3 variant; copies: 2 + 2
B5: GpH7-B3 P329S/GpL16-k0 (antibody, human IgG1)
heavy: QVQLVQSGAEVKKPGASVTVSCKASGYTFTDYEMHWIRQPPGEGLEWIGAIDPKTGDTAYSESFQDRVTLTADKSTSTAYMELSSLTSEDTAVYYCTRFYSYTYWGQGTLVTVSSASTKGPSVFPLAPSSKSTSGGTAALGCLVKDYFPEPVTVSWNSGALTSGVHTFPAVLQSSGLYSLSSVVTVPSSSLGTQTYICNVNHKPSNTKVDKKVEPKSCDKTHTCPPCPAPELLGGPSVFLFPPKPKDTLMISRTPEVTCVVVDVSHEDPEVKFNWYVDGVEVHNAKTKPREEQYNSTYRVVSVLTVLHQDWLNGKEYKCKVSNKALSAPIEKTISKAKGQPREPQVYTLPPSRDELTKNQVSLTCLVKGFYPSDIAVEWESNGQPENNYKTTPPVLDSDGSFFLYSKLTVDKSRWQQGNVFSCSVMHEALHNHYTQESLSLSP
light: B1 light
notes: B3 variant; copies: 2 + 2
B6: GpH7-B3 Q295N/GpL16-k0 (antibody, human IgG1)
heavy: not shown
light: B1 light
notes: B3 variant; copies: 2 + 2
B7: GpH7-B3 P329R/GpL16-k0 (antibody, human IgG1)
heavy: not shown
light: B1 light
notes: B3 variant; copies: 2 + 2
B8: GpH7-B3 P329I/GpL16-k0 (antibody, human IgG1)
heavy: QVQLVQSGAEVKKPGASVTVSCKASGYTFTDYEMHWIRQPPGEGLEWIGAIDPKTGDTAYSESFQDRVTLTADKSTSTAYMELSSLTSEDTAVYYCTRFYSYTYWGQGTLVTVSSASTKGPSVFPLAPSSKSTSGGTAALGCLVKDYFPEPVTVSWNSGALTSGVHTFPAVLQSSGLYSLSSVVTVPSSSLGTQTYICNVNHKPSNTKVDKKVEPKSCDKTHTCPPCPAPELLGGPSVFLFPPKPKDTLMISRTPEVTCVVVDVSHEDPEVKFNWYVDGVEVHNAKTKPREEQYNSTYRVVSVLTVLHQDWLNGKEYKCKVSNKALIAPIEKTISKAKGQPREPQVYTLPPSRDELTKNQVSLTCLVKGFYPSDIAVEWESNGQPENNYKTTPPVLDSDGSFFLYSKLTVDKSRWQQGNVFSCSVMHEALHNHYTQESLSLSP
light: B1 light
notes: B3 variant; copies: 2 + 2
B9: GpH7-B3 P329H/GpL16-k0 (antibody, human IgG1)
heavy: not shown
light: B1 light
notes: B3 variant; copies: 2 + 2
B10: GpH7-B3 P331K/GpL16-k0 (antibody, human IgG1)
heavy: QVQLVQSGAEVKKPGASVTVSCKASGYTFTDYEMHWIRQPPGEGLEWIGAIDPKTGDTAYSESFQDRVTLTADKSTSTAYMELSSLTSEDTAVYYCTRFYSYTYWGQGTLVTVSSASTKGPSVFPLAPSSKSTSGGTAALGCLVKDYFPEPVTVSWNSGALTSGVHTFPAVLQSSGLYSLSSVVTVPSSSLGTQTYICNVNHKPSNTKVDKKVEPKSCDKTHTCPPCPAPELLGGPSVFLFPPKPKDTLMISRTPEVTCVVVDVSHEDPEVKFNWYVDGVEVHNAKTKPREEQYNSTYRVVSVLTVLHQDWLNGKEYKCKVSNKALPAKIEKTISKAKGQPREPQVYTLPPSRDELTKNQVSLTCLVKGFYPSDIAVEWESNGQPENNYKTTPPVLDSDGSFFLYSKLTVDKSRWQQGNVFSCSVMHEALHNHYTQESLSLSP
light: B1 light
notes: B3 variant; copies: 2 + 2
B11: GpH7-B3 P331G/GpL16-k0 (antibody, human IgG1)
heavy: not shown
light: B1 light
notes: B3 variant; copies: 2 + 2
B12: GpH7-B3 Q295H/GpL16-k0 (antibody, human IgG1)
heavy: not shown
light: B1 light
notes: B3 variant; copies: 2 + 2
B13: GpH7-B3 Q295D/GpL16-k0 (antibody, human IgG1)
heavy: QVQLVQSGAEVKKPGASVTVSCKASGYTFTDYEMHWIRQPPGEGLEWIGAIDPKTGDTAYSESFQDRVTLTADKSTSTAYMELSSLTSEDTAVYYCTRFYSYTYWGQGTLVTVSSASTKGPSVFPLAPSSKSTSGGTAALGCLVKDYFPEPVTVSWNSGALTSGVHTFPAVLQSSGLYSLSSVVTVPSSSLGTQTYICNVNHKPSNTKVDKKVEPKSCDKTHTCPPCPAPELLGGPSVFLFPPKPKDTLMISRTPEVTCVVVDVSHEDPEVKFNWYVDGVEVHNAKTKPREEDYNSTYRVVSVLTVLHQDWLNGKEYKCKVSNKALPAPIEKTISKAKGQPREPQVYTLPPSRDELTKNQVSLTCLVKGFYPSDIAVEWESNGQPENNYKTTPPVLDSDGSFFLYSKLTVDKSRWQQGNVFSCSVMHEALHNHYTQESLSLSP
light: B1 light
notes: B3 variant; copies: 2 + 2
B14: GpH7-B3 Q295R/GpL16-k0 (antibody, human IgG1)
heavy: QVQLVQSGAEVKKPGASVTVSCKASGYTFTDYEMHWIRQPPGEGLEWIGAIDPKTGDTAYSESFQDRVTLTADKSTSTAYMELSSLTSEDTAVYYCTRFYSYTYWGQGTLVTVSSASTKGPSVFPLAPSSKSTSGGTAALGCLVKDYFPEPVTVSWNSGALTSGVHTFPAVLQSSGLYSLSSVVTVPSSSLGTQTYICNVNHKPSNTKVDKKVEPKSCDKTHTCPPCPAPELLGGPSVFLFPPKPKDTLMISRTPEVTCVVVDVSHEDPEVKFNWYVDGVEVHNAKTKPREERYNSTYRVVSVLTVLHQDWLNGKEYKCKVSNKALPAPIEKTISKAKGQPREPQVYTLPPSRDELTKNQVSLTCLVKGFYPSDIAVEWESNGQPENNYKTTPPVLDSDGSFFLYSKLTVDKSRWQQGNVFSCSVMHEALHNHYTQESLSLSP
light: B1 light
notes: B3 variant; copies: 2 + 2
B15: GpH7-B3 P329L/GpL16-k0 (antibody, human IgG1)
heavy: not shown
light: B1 light
notes: B3 variant; copies: 2 + 2
B16: GpH7-B3 P271Y/GpL16-k0 (antibody, human IgG1)
heavy: not shown
light: B1 light
notes: B3 variant; copies: 2 + 2
B17: GpH7-B3 P329D/GpL16-k0 (antibody, human IgG1)
heavy: not shown
light: B1 light
notes: B3 variant; copies: 2 + 2
B18: GpH7-B3 P329Y/GpL16-k0 (antibody, human IgG1)
heavy: not shown
light: B1 light
notes: B3 variant; copies: 2 + 2
B19: GpH7-B3 P329G/GpL16-k0 (antibody, human IgG1)
heavy: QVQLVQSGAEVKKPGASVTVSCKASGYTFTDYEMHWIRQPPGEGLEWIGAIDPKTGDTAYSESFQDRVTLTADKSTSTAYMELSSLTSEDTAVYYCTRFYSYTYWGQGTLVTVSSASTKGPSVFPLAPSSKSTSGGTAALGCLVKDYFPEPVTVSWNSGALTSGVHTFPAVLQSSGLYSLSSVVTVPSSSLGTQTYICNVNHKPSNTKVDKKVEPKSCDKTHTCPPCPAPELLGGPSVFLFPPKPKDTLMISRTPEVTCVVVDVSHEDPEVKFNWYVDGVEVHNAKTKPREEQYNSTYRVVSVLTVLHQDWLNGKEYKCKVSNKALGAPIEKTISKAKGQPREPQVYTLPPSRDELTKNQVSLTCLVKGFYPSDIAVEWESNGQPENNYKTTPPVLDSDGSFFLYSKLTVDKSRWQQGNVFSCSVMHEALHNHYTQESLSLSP
light: B1 light
notes: B3 variant; copies: 2 + 2
B20: GpH7-B3 P329M/GpL16-k0 (antibody, human IgG1)
heavy: not shown
light: B1 light
notes: B3 variant; copies: 2 + 2
B21: GpH7-B3 P329W/GpL16-k0 (antibody, human IgG1)
heavy: not shown
light: B1 light
notes: B3 variant; copies: 2 + 2
B22: GpH7-B3 P329F/GpL16-k0 (antibody, human IgG1)
heavy: not shown
light: B1 light
notes: B3 variant; copies: 2 + 2
B23: GpH7-B3 P329T/GpL16-k0 (antibody, human IgG1)
heavy: not shown
light: B1 light
notes: B3 variant; copies: 2 + 2
B24: GpH7-B3 P329Q/GpL16-k0 (antibody, human IgG1)
heavy: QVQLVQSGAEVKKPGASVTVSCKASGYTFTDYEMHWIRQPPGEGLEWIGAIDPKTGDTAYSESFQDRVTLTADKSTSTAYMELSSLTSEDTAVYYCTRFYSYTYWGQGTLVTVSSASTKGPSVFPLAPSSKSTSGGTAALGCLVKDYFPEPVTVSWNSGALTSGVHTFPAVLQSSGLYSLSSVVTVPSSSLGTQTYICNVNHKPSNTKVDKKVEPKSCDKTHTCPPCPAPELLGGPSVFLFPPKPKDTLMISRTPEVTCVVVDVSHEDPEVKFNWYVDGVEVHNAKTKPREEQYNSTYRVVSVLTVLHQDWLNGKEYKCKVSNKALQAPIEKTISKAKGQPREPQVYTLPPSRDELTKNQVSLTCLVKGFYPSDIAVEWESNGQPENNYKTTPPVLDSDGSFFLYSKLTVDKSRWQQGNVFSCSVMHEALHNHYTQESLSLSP
light: B1 light
notes: B3 variant; copies: 2 + 2
B25: GpH7-B3 P329N/GpL16-k0 (antibody, human IgG1)
heavy: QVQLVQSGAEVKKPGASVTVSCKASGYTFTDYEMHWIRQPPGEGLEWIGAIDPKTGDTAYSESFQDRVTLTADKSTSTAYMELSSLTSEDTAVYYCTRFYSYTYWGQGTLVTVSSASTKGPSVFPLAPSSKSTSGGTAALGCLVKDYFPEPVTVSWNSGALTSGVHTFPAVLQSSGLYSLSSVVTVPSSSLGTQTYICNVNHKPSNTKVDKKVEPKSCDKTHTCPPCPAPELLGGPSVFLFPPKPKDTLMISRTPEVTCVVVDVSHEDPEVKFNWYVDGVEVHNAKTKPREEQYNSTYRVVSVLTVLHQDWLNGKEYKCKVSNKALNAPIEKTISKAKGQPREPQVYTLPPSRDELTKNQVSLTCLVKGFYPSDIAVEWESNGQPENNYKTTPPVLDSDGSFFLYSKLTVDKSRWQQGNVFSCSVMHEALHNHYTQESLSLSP
light: B1 light
notes: B3 variant; copies: 2 + 2
B26: GpH7-B3 Q295F/GpL16-k0 (antibody, human IgG1)
heavy: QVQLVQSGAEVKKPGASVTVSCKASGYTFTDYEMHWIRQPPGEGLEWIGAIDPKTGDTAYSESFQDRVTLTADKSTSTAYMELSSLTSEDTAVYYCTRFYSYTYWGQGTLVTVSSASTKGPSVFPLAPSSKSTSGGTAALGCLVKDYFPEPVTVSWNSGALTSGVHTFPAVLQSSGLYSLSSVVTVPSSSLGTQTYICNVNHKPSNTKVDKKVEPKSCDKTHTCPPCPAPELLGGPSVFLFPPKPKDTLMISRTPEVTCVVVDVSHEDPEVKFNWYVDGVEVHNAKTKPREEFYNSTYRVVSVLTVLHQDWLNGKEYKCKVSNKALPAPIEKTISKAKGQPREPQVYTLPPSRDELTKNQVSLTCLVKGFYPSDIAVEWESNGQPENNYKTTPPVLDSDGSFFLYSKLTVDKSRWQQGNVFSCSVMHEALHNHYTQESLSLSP
light: B1 light
notes: B3 variant; copies: 2 + 2
B27: GpH7-B3 Q295G/GpL16-k0 (antibody, human IgG1)
heavy: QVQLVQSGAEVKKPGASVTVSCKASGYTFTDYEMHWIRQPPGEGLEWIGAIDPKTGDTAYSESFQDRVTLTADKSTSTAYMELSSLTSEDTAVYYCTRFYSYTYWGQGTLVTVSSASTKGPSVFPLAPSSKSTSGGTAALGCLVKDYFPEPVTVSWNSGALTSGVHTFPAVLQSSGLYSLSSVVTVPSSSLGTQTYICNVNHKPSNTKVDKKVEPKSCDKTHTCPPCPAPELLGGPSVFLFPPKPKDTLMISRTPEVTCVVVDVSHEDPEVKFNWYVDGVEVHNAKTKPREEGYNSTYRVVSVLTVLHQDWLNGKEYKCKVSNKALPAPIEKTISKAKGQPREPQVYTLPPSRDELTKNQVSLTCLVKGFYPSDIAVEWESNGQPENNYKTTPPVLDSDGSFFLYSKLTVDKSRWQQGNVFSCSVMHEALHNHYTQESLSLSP
light: B1 light
notes: B3 variant; copies: 2 + 2

Target: T4, human FcγRIa (human, UniProt P12314 16-292, limits assumed)
T4 construct: also called FcgRIa; hFcgRIa
Experiment: SPR, captured antibody;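 further: antibody captured on a sensor chip, Fcγ receptor flowed over at 25 °C, receptor binding normalized to the captured antibody amount and expressed relative to the reference antibody ×100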

Binder | relative binding activity
B1 | 100 % of GpH7-B3/GpL16-k0
B2 | 95 % of GpH7-B3/GpL16-k0
B3 | 95 % of GpH7-B3/GpL16-k0
B4 | 33 % of GpH7-B3/GpL16-k0
B5 | 60 % of GpH7-B3/GpL16-k0
B6 | 99 % of GpH7-B3/GpL16-k0
B7 | 9 % of GpH7-B3/GpL16-k0
B8 | 89 % of GpH7-B3/GpL16-k0
B9 | 50 % of GpH7-B3/GpL16-k0
B10 | 98 % of GpH7-B3/GpL16-k0
B11 | 88 % of GpH7-B3/GpL16-k0
B12 | 97 % of GpH7-B3/GpL16-k0
B13 | 95 % of GpH7-B3/GpL16-k0
B14 | 100 % of GpH7-B3/GpL16-k0
B15 | 68 % of GpH7-B3/GpL16-k0
B16 | 98 % of GpH7-B3/GpL16-k0
B17 | 23 % of GpH7-B3/GpL16-k0
B18 | 76 % of GpH7-B3/GpL16-k0
B19 | 92 % of GpH7-B3/GpL16-k0
B20 | 69 % of GpH7-B3/GpL16-k0
B21 | 94 % of GpH7-B3/GpL16-k0
B22 | 79 % of GpH7-B3/GpL16-k0
B23 | 43 % of GpH7-B3/GpL16-k0
B24 | 43 % of GpH7-B3/GpL16-k0
B25 | 45 % of GpH7-B3/GpL16-k0
B26 | 99 % of GpH7-B3/GpL16-k0
B27 | 89 % of GpH7-B3/GpL16-k0

Target: T1, human FcγRIIa(R)
Experiment: SPR, captured antibody;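 further: antibody captured on a sensor chip, Fcγ receptor flowed over at 25 °C, receptor binding normalized to the captured antibody amount and expressed relative to the reference antibody ×100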

Binder | relative binding activity
B1 | 46 % of GpH7-B3/GpL16-k0
B2 | 64 % of GpH7-B3/GpL16-k0
B3 | 24 % of GpH7-B3/GpL16-k0
B4 | -1 % of GpH7-B3/GpL16-k0
B5 | 0 % of GpH7-B3/GpL16-k0
B6 | 56 % of GpH7-B3/GpL16-k0
B7 | -2 % of GpH7-B3/GpL16-k0
B8 | 22 % of GpH7-B3/GpL16-k0
B9 | -1 % of GpH7-B3/GpL16-k0
B10 | 72 % of GpH7-B3/GpL16-k0
B11 | 13 % of GpH7-B3/GpL16-k0
B12 | 45 % of GpH7-B3/GpL16-k0
B13 | 43 % of GpH7-B3/GpL16-k0
B14 | 61 % of GpH7-B3/GpL16-k0
B15 | 2 % of GpH7-B3/GpL16-k0
B16 | 38 % of GpH7-B3/GpL16-k0
B17 | -1 % of GpH7-B3/GpL16-k0
B18 | -1 % of GpH7-B3/GpL16-k0
B19 | 1 % of GpH7-B3/GpL16-k0
B20 | 2 % of GpH7-B3/GpL16-k0
B21 | 1 % of GpH7-B3/GpL16-k0
B22 | 1 % of GpH7-B3/GpL16-k0
B23 | -2 % of GpH7-B3/GpL16-k0
B24 | -1 % of GpH7-B3/GpL16-k0
B25 | 4 % of GpH7-B3/GpL16-k0
B26 | 46 % of GpH7-B3/GpL16-k0
B27 | 36 % of GpH7-B3/GpL16-k0

Target: T2, human FcγRIIa(H)
Experiment: SPR, captured antibody;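 further: antibody captured on a sensor chip, Fcγ receptor flowed over at 25 °C, receptor binding normalized to the captured antibody amount and expressed relative to the reference antibody ×100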

Binder | relative binding activity
B1 | 75 % of GpH7-B3/GpL16-k0
B2 | 59 % of GpH7-B3/GpL16-k0
B3 | 28 % of GpH7-B3/GpL16-k0
B4 | 0 % of GpH7-B3/GpL16-k0
B5 | 1 % of GpH7-B3/GpL16-k0
B6 | 74 % of GpH7-B3/GpL16-k0
B7 | -1 % of GpH7-B3/GpL16-k0
B8 | 21 % of GpH7-B3/GpL16-k0
B9 | 0 % of GpH7-B3/GpL16-k0
B10 | 58 % of GpH7-B3/GpL16-k0
B11 | 9 % of GpH7-B3/GpL16-k0
B12 | 78 % of GpH7-B3/GpL16-k0
B13 | 37 % of GpH7-B3/GpL16-k0
B14 | 94 % of GpH7-B3/GpL16-k0
B15 | 2 % of GpH7-B3/GpL16-k0
B16 | 48 % of GpH7-B3/GpL16-k0
B17 | -1 % of GpH7-B3/GpL16-k0
B18 | 0 % of GpH7-B3/GpL16-k0
B19 | 1 % of GpH7-B3/GpL16-k0
B20 | 2 % of GpH7-B3/GpL16-k0
B21 | 0 % of GpH7-B3/GpL16-k0
B22 | 1 % of GpH7-B3/GpL16-k0
B23 | 0 % of GpH7-B3/GpL16-k0
B24 | 0 % of GpH7-B3/GpL16-k0
B25 | 5 % of GpH7-B3/GpL16-k0
B26 | 74 % of GpH7-B3/GpL16-k0
B27 | 41 % of GpH7-B3/GpL16-k0

Target: T3, human FcγRIIb
Experiment: SPR, captured antibody;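 further: antibody captured on a sensor chip, Fcγ receptor flowed over at 25 °C, receptor binding normalized to the captured antibody amount and expressed relative to the reference antibody ×100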

Binder | relative binding activity
B1 | 33 % of GpH7-B3/GpL16-k0
B2 | 55 % of GpH7-B3/GpL16-k0
B3 | 13 % of GpH7-B3/GpL16-k0
B4 | -2 % of GpH7-B3/GpL16-k0
B5 | -1 % of GpH7-B3/GpL16-k0
B6 | 41 % of GpH7-B3/GpL16-k0
B7 | -3 % of GpH7-B3/GpL16-k0
B8 | 13 % of GpH7-B3/GpL16-k0
B9 | -3 % of GpH7-B3/GpL16-k0
B10 | 63 % of GpH7-B3/GpL16-k0
B11 | 8 % of GpH7-B3/GpL16-k0
B12 | 29 % of GpH7-B3/GpL16-k0
B13 | 40 % of GpH7-B3/GpL16-k0
B14 | 46 % of GpH7-B3/GpL16-k0
B15 | 1 % of GpH7-B3/GpL16-k0
B16 | 28 % of GpH7-B3/GpL16-k0
B17 | -2 % of GpH7-B3/GpL16-k0
B18 | -3 % of GpH7-B3/GpL16-k0
B19 | 0 % of GpH7-B3/GpL16-k0
B20 | 0 % of GpH7-B3/GpL16-k0
B21 | 0 % of GpH7-B3/GpL16-k0
B22 | 0 % of GpH7-B3/GpL16-k0
B23 | -4 % of GpH7-B3/GpL16-k0
B24 | -2 % of GpH7-B3/GpL16-k0
B25 | 0 % of GpH7-B3/GpL16-k0
B26 | 30 % of GpH7-B3/GpL16-k0
B27 | 28 % of GpH7-B3/GpL16-k0
